Measurements from publication PMC3648886.

How the values were obtained:
Assay in all cases: FRET or BRET
[1] = molecular target: Monocysteine-reactive type A CCK receptor construct C94, derivatized with Alexa^546 at position 94 (UniProt P30551)
[2] = molecular target: Monocysteine-reactive type A CCK receptor construct T341C, derivatized with Alexa^546 at position 341 (UniProt P30551)
[3] = molecular target: Monocysteine-reactive type A CCK receptor construct N102C, derivatized with Alexa^546 at position 102 (UniProt P30551)
[4] = molecular target: Monocysteine-reactive type A CCK receptor construct A204C, derivatized with Alexa^546 at position 204 (UniProt P30551)

| Substance | efficiency of energy transfer [1] | efficiency of energy transfer [2] | efficiency of energy transfer [3] | efficiency of energy transfer [4] |
| --- | --- | --- | --- | --- |
| Aladan^24-CCK (peptide) | 56% | 64% | 64% | 53% |
| Aladan^29-CCK (peptide) | 55% | 67% | 66% | 54% |
| Aladan^33-CCK (peptide) | 58% | 66% | 70% | 53% |
